Article PMC10403546

How the values were obtained:
[1] = target: X16 UFO (CRF07_BC Env), uncleaved prefusion-optimized Env trimer of isolate BJOX016000.e15 (HIV-1); experiment: cryo-EM structure
[2] = target: X18 UFO (CRF01_AE Env), uncleaved prefusion-optimized Env trimer of isolate BJOX018000.e12 (HIV-1); experiment: cryo-EM structure
[3] = target: X18 UFO (CRF01_AE Env), uncleaved prefusion-optimized Env trimer of isolate BJOX018000.e12 (HIV-1); experiment: negative stain EM

Substance: X16 UFO (CRF07_BC Env), uncleaved prefusion-optimized Env trimer of isolate BJOX016000.e15 (natural protein)
- stoichiometry N [1]: 3

Substance: X18 UFO (CRF01_AE Env), uncleaved prefusion-optimized Env trimer of isolate BJOX018000.e12 (natural protein)
- stoichiometry N [2]: 3
- percentage of intact Env trimers, 8ANC195-bound, over 18 h [3]: 90%
- percentage of intact Env trimers, F6-bound, 1 h [3]: 83%
- percentage of intact Env trimers, F6-bound, 7 h [3]: 48%
